Measured values from paper PMC6255862, “A quaternary tetramer assembly inhibits the deubiquitinating activity of USP25” (Nature Communications, 2018).
Substitutions are numbered along the chain they refer to.

B1: USP25NCD L271W (enzyme, human, UniProt Q9UHP3 18-714, looked up)
chain: QTFLNQLREITGINDTQILQQALKDSNGNLELAVAFLTAKNAKTPQQEETTYYQTALPGNDRYISVGSQADTNVIDLTGDDKDDLQRAIALSLAESNRAFRETGITDEEQAISRVLEASIAENKACLKRTPTEVWRDSRNPYDRKRQDKAPVGLKNVGNTCWFSAVIQSLFNLLEFRRLVLNYKPPSNAQDLPRNQKEHRNLPFMRELRYLFALLVGTKRKYVDPSRAVEILKDAFKSNDSQQQDVSEFTHKLWDWLEDAFQMKAEEETDEEKPKNPMVELFYGRFLAVGVLEGKKFENTEMFGQYPLQVNGFKDLHECLEAAMIEGEIESLHSENSGKSGQEHWFTELPPVLTFELSRFEFNQALGRPEKIHNKLEFPQVLYLDRYMHRNREITRIKREEIKRLKDYLTVLQQRLERYLSYGSGPKRFPLVDVLQYALEFASSKPVCTSPVDDIDASSPPSGSIPSQTLPSTTEQQGALSSELPSTSPSSVAAISSRSVIHKPFTQSRIPPDLPMHPAPRHITEEELSVLESCLHRWRTEIENDTRDLQESISRIHRTIELMYSDKSMIQVPYRLHAVLVHEGQANAGHYWAYIFDHRESRWMKYNDIAVTKSSWEELVRDSFGGYRNASAYCLMYINDKAQFLIQEEFNKETGQPLVGIETLPPDLRDFVEEDNQRFEKELEEWDAQLAQKALQE
notes: The methods speak of 'USP25NCD point mutants'; not shown: Smt3, N-terminal, cleaved
B2: USP25NCD, lysine-methylated (tetramer fraction used for crystallization) (enzyme, human, UniProt Q9UHP3 18-714, looked up)
chain: B1 chain with W254L
modifications: lysines methylated (borane-dimethylamine complex and formaldehyde)
notes: USP25, human, residues 18-714 of the 1055-residue protein; Model holds Tyr159 to Ala708; NTD (18-158) and several loops (205-214, 256-260, 346-354, 471-515, 671-677) are not seen; also called USP25NCD tetramer; lysine methylated USP25NCD; not shown: Smt3, N-terminal, cleaved

Tests used:
[1] = target: the molecule itself; experiment: SEC; oligomer state of USP25 point mutants (Supplementary Figures 6 and 11, not shown); by the methods all USP25 constructs were loaded on a Superdex 16 column in 100 mM NaCl, 20 mM Tris-HCl pH 8.0, 1 mM β-mercaptoethanol and run on native PAGE
[2] = target: the molecule itself; experiment: crystal structure; lysine-methylated USP25NCD tetramer fraction; space group I422, one molecule per asymmetric unit, tetramer from the crystal lattice; 3.28 Å

Protein | stoichiometry N [1] | stoichiometry N [2]
B1 | 4 | 
B2 |  | 4
